According to patent US20120263651, “Single Stranded DNA Aptamers Binding NF-kB/RelA” (Board of Regents, The University of Texas System, published 2012):

How the values were obtained:
[1] = biological target: endogenous RelA in A549 cells (Homo sapiens, UniProt Q04206 Q04206:1-551); assay: cell_activity; 4 uM transfected aptamer; control induction 5-fold (Gro-beta) and nearly 7-fold (TNFAIP3)
Protocol: A549 cells transfected with nothing (−), 4 μM P028A1 or P028F4 aptamers were stimulated in the absence (Con) or presence of TNF. (1 h, 30 ng/ml). Total RNA was extracted and subjected to Q-RT-PCR for Gro-β (top panel) and TNFAIP3/A20 (bottom panel). Data are normalized to GAPDH and expressed as fold change relative to uninfected control. Each bar is mean±SD of triplicate determination. * p<0.05 and (4B) ChIP assay. A549 cells transfected with nothing (−), P028A1 (4 μM) or P028F4 (4 μM) were stimulated in the absence (Con) or presence of TNF (1 h, 30 ng/ml). Two-step ChIP was preformed using pre-immune IgG (IgG), or anti-RelA as the primary Abs. Immunoprecipitated DNA was subjected to quantitative PCR using primers for Groβ (top) or TNFAIP3/A20 promoters (bottom) as indicated. Data are shown as fold increase in signal relative to unstimulated A549 cells (X, ±SD of technical replicates). The study was repeated twice with similar results;
Aptamer P028F4 inhibits TNFα-induced endogenous NF-κB dependent gene expression: Earlier studies selectively inhibiting NF-κB/RelA translocation identified Groβ and TNFAIP3/A20 as part of a TNFα inducible gene network downstream of NF-κB (3,4,39). […] Relative changes in Groβ and TNFAIP3/A20 transcripts were determined by Q-RT-PCR. […]

[2] = biological target: GST-RelA(1-313) (NF-kB p65, DNA binding and IkBa interactive domain) (UniProt Q04206 Q04206:1-313); assay: filter; variable region alone sufficient for binding; data not shown; competition and direct binding; conditions: tags: GST; chain copies: 2
Sequence of GST-RelA(1-313) (NF-kB p65, DNA binding and IkBa interactive domain) (Q04206 1-313, one chain of several): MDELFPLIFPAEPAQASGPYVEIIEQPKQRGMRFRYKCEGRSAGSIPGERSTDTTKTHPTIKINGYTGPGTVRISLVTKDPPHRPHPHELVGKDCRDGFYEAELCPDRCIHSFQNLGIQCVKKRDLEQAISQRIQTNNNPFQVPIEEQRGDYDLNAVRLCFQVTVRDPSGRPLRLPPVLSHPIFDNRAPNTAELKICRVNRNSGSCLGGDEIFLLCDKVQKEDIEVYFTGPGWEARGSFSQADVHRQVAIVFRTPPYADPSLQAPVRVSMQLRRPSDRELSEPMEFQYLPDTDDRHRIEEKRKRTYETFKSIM
Protocol: Binding Studies: (i) Nitrocellulose filter binding assay: Filter binding assays were performed as described (22). Initially, 70 mer oligonucleotides were commercially synthesized (IDT) to include the proximal 20 bases of each flanking primer sequence and the 30 base variable region. DNAs were 5′ end-labeled with ³²P-ATP using T4-PNK (New England Biolabs) and purified by glass bead binding using a MERMAID kit (MP Biomedicals LLC). Protein and labeled aptamer were incubated in ABB and filtered through 25 mm nitrocellulose filters. The bound material was counted in a Beckman Liquid Scintillation counter. For competition studies, binding reactions (100 μL) in ABB were incubated at RT for 20 min with 100 fold excess (10 picomoles) of unlabeled competitor DNAs, followed by the addition of 0.1 picomole of ³²P-labeled KB55 probe. After 30 min of incubation, reactions were filtered and counted. The KB55 sequence is […] (SEQ ID NO: 3) and self anneals to form a duplex. Upper and lower strands of IL8KB are […] (SEQ ID NO: 4) and […] (SEQ ID NO: 5), respectively.
Isolation of RelA(1-313) binding single stranded aptamer: Purified recombinant GST-RelA(1-313), encoding the DNA binding and IκBα interactive domain, was used to screen for high affinity ssDNA aptamers by repeated rounds of in vitro binding and enrichment. […]

Sequence of endogenous RelA in A549 cells (Q04206 whole entry, one chain of several): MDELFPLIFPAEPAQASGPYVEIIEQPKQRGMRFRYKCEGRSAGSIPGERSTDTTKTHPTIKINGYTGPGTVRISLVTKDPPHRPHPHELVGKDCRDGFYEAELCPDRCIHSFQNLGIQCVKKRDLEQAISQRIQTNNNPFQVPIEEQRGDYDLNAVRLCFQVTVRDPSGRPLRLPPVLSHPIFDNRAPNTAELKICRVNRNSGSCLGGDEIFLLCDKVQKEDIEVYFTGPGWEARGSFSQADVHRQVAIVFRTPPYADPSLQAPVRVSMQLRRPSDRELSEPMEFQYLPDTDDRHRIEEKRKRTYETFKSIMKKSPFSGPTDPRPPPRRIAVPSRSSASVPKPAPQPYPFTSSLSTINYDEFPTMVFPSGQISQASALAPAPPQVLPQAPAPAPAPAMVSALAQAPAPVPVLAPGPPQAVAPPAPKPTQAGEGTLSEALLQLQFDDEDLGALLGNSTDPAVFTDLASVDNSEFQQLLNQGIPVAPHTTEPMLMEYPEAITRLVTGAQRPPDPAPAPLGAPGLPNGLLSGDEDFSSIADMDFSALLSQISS

| Binder | activity [1] | binding result [2] |
| --- | --- | --- |
| P028F4 (ssDNA) DNA: GGGTAACCTTGAGTCACGAATTCAAGCGGGACAGGAGAAACACGGCATGTCAGCGAAGGTACCCAACTTACAGCTTCTGG | < 2 fold induction of Gro-beta and TNFAIP3 mRNA | – |
| GCGGGACAGGAGAAACACGGCATGTCAGCG (ssDNA) [P028F4 30-base variable region] | – | binds |
